Where two headings read alike, the source gives them in different places.
What was measured:
[1] = target: keyhole limpet hemocyanin; test: polyreactivity ELISA
[2] = target: keyhole limpet hemocyanin; test: polyreactivity ELISA; remark: listed apart in the source

Binding to KLH (A450 normalised to buffer control) [1]: 47.1 | Binding to KLH (A450 normalised to buffer control) [2]: 24.4
Substance: Bococizumab (antibody)

Reference: patent US12247072
